Measured values taken from PMC8983717, “Cryo-EM structures of a LptDE transporter in complex with Pro-macrobodies offer insight into lipopolysaccharide translocation” (Nature Communications, 2022).

Experiments:
[1] = target: T1, N. gonorrhoeae LptD (1-801)-3C-His10 and LptE (1-159)-AVI complex, biotinylated (Neisseria gonorrhoeae ATCC 700825 / FA …, UniProt Q5F651;Q5F9V6, biotin on the AVI tag (in vitro, BirA)); assay: grating-coupled interferometry (GCI); biotinylated NgLptDE immobilised on a 4PCP-S (streptavidin) chip at 600-700 pg/mm2; 20 °C; Tris 25 mM pH 7.5, NaCl 300 mM, DDM 0.1%; 8 concentrations (2-fold dilutions) in duplicate; 1:1 model; details: both partners purified
T1 construct: signal peptide in the construct; LptD of N. gonorrhoeae (Zopf) Trevisan (ATCC 700825), residues 1-801; LptE of N. gonorrhoeae (Zopf) Trevisan (ATCC 700825), residues 1-159; Used for sybody generation and GCI; also called biotinylated NgLptDE; Biotinylated protein; source: E. coli SF100, purified as the NgLptDE complex, biotinylated in vitro with BirA, second SEC; monomeric peak; not shown: AVI, …

[2] = target: the molecule itself; assay: cryo-EM structure; subset of 80,140 dimeric particles of the NgLptDE-PMb51-PMb21 sample; map at 5.27 Å; pseudo-2-fold symmetry

B1: sybody 51 (Sb51), synthetic nanobody against NgLptDE (VHH)
VHH: QVQLVESGGGSVQAGGSLRLSCAASGSISSITYLGWFRQAPGKEREGVAALATYYGHTYYADSVKGRFTVSLDNAKNTVYLQMNSLKPEDTALYYCAAAYSGIWTPLGVWATYEYWGQGTQVTV
notes: as the sybody moiety of m6 (PMb51), PDB 7OMM, up to the conserved C-terminus VTV
B1: binds [1].

B2: Neisseria gonorrhoeae LptDE complex (NgLptDE), wild-type full-length LptD and LptE with a C-terminal hexa-histidine tag (complex, N. gonorrhoeae)
chain 1: ADTVAAEEADGRVAEGGAQGASESAQASDLTLGSTCLFCSNESGSPERTEAAVQGSGEASVPEDYTRIVADRMEGQSKVKVRAEGSVIIERDGAVLNTDWADYDQSGDTVTVGDRFALQQDGTLIRGETLTYNLDQQTGEAHNVRMETEQGGRRLQSVSRTAEMLGEGRYKLTETQFNTCSAGDAGWYVKAASVEADRGKGIGVAKHAAFVFGGVPLFYTPWADFPLDGNRKSGLLVPSVSAGSDGVSLSVPYYFNLAPNFDATFAPGIIGERGATFDGQIRYLRPDYSGQTDLTWLPHDKKSGRNNRYQAKWQHRHDISDTLQAGVDFNQVSDSGYYRDFYGGEEIAGNVNLNRRVWLDYGGRAAGGSLNAGLSVQKYQTLANQSGYKDEPYAIMPRLSADWHKNAGRAQIGVSAQFTRFSHDGRQDGSRLVVYPGIKWDFSNSWGYVRPKLGLHATYYSLDSFGGKASRSVGRVLPVVNIDGGTTFERNTRLFGGGVVQTIEPRLFYNYIPAKSQNDLPNFDSSESSFGYGQLFRENLYYGNDRINAANSLSTAVQSRILDGATGEERFRAGIGQKFYFKDDAVMLDGSVGKNPRSRSDWVAFASGGIGGRFTLDSSIHYNQNDKRAEHYAVGAGYRPAPGKVLNARYKYGRNEKIYLQADGSYFYDKLSQLDLSAQWPLTRNLSAVVRYNYGFEAKKPIEMLAGAEYKSSCGCWGAGVYAQRYVTGENTYKNAVFFSLQLKDLSSVGRNPAGRMDVAVPGYIPAHSLSAGRNKRP
chain 2: CGFHLKGADGISPPLTYRSWHIEGGQALQFPLETALYQASGRVDDAAGAQMTLRIDSVSQNKETYTVTRAAVINEYLLILTVEAQVLKRGEPVGKPMTVSVRRILDYADNEILGKQEEEETLWAEMRQDVAEQIVRRLTFLKAE
notes: LptD of N. gonorrhoeae, wild-type full length, UniProt Q5F651; LptE of N. gonorrhoeae, UniProt Q5F9V6; it is put on LptE here; Monomeric and dimeric SEC peaks were kept apart; the monomer was used for the complexes with PMbs; also called LptDE transporter; source: E. coli SF100, pBAD22A, purified from the outer-membrane fraction (LDAO, NiNTA, exchange to LMNG, SEC); also on E. coli SF100 cells …
For B2, the “stoichiometry N” value [2] was 2.

B3: N. gonorrhoeae LptD (NgLptD), as the chain of the purified NgLptDE complex (natural protein, UniProt Q5F651 24-801, looked up)
chain: B2 chain 1
notes: LptD of N. gonorrhoeae, wild-type full length, UniProt Q5F651; The LptD chain of m1; source: E. coli SF100, co-expressed with LptE, purified as the NgLptDE complex (NiNTA, SEC, LMNG)
B3: binds [2].
